Data published in patent US20200199241A1 (Chugai, published 2020).
Residue numbers refer to the chain shown, from its start. Names and notes keep the numbering of the source.

T1: human FcγRIIa(H) (human, UniProt P12318 36-217)
T1 construct: also called FcgRIIaH; FcγRIIa type H
T1 sequence: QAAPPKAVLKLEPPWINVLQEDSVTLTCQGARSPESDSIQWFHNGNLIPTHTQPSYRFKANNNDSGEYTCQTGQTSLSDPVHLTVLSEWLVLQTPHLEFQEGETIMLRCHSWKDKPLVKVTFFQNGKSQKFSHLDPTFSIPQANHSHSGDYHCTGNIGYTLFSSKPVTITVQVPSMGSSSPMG

T2: human FcγRIIa(R) (human, UniProt P12318 36-217)
T2 construct: also called FcgRIIaR; FcγRIIa type R
T2 chain: T1 sequence with H133R

T3: human FcγRIIb (human, UniProt P31994 43-217, limits assumed)
T3 construct: also called FcgRIIb
T3 sequence: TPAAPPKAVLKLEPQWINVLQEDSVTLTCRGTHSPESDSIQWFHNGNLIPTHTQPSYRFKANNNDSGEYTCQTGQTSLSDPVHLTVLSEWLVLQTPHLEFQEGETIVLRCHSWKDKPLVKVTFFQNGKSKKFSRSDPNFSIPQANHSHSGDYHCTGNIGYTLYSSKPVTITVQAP

B1: GpH7-B3 variant L234H/GpL16-k0 (antibody, human IgG1)
heavy: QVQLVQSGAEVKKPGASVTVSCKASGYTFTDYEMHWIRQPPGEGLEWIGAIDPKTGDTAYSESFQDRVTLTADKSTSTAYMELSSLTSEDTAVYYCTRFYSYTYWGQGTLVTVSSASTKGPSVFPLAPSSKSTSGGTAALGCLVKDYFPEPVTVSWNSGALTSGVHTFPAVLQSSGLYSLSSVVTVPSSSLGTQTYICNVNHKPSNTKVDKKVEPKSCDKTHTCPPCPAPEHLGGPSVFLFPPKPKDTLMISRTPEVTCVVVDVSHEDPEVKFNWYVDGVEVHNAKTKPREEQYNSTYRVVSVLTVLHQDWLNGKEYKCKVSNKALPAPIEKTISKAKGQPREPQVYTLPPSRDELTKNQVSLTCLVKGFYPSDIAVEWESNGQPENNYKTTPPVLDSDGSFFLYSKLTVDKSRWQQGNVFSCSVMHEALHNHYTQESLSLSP
light: DIVMTQSPLSLPVTPGEPASISCQASESLVHSNRNTYLHWYLQKPGQSPQLLIYKVSNRFSGVPDRFSGSGSGTDFTLKISRVEAEDVGVYYCSQNTHVPPTFGQGTKVEIE
notes: copies: 2 + 2
B2: GpH7-B3 variant L234P/GpL16-k0 (antibody, human IgG1)
heavy: not shown
light: B1 light
notes: copies: 2 + 2
B3: GpH7-B3 variant L234Q/GpL16-k0 (antibody, human IgG1)
heavy: not shown
light: B1 light
notes: copies: 2 + 2
B4: GpH7-B3 variant L235R/GpL16-k0 (antibody, human IgG1)
heavy: not shown
light: B1 light
notes: copies: 2 + 2
B5: GpH7-B3 variant L235N/GpL16-k0 (antibody, human IgG1)
heavy: not shown
light: B1 light
notes: copies: 2 + 2
B6: GpH7-B3 variant L235G/GpL16-k0 (antibody, human IgG1)
heavy: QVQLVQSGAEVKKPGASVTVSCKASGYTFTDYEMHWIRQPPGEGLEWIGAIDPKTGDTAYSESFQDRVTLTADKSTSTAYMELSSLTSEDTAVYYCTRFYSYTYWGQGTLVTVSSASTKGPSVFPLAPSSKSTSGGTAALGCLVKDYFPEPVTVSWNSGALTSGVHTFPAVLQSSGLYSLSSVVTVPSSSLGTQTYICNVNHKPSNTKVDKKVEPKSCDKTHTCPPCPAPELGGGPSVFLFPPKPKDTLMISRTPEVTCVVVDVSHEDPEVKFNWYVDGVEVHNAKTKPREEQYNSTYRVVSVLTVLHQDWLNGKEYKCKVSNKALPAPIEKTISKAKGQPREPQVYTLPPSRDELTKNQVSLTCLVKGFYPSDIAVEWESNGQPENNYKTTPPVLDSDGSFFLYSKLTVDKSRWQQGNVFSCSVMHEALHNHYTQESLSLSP
light: B1 light
notes: copies: 2 + 2
B7: GpH7-B3 variant L235M/GpL16-k0 (antibody, human IgG1)
heavy: not shown
light: B1 light
notes: copies: 2 + 2
B8: GpH7-B3 variant L235I/GpL16-k0 (antibody, human IgG1)
heavy: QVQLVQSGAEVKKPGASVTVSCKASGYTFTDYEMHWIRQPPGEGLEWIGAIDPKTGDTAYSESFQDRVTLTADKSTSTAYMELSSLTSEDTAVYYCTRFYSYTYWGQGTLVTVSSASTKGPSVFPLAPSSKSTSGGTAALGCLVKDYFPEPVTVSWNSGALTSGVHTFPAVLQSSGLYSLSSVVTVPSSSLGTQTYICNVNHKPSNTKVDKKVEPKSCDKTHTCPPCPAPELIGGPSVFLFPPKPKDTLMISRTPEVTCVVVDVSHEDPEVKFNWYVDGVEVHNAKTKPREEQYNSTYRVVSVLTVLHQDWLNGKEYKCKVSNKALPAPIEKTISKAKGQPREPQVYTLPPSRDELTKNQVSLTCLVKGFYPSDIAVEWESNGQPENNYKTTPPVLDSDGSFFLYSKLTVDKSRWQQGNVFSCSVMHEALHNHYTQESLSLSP
light: B1 light
notes: copies: 2 + 2
B9: GpH7-B3 variant L234K/GpL16-k0 (antibody, human IgG1)
heavy: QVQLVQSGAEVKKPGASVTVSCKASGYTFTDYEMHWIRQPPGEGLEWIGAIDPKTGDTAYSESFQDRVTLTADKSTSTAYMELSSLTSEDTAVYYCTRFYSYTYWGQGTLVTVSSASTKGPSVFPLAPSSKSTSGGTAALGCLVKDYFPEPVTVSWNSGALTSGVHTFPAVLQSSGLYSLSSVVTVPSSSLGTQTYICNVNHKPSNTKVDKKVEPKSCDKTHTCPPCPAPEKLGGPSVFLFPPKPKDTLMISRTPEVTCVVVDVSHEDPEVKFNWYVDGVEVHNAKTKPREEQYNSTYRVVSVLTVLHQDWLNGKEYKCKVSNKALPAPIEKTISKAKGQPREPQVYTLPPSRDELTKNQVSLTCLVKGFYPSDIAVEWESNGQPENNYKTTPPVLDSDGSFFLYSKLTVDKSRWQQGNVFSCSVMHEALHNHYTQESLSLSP
light: B1 light
notes: copies: 2 + 2
B10: GpH7-B3 variant L234M/GpL16-k0 (antibody, human IgG1)
heavy: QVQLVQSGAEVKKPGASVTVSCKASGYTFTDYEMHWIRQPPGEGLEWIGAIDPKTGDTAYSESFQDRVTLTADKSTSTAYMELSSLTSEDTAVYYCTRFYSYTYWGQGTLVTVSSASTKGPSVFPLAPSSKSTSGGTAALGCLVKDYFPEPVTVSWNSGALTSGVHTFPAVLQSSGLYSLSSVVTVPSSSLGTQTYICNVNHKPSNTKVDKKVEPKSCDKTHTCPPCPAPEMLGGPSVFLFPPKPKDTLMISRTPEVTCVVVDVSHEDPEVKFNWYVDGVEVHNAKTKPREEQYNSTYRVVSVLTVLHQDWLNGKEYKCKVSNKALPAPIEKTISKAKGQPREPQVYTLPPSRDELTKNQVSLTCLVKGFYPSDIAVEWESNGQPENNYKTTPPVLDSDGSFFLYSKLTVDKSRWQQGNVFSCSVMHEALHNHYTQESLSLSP
light: B1 light
notes: copies: 2 + 2
B11: GpH7-B3 variant L235A/GpL16-k0 (antibody, human IgG1)
heavy: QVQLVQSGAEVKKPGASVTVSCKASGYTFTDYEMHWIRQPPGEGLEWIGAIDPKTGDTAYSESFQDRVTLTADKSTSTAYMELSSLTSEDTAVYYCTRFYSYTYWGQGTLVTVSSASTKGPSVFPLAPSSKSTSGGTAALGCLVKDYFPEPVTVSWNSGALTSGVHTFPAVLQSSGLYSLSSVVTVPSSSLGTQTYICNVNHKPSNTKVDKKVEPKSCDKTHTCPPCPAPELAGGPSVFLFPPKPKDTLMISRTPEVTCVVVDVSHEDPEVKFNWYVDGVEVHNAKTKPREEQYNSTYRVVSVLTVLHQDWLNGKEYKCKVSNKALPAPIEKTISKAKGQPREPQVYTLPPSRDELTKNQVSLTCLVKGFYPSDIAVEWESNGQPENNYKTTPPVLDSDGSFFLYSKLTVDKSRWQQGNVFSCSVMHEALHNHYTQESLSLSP
light: B1 light
notes: copies: 2 + 2
B12: GpH7-B3 variant L234W/GpL16-k0 (antibody, human IgG1)
heavy: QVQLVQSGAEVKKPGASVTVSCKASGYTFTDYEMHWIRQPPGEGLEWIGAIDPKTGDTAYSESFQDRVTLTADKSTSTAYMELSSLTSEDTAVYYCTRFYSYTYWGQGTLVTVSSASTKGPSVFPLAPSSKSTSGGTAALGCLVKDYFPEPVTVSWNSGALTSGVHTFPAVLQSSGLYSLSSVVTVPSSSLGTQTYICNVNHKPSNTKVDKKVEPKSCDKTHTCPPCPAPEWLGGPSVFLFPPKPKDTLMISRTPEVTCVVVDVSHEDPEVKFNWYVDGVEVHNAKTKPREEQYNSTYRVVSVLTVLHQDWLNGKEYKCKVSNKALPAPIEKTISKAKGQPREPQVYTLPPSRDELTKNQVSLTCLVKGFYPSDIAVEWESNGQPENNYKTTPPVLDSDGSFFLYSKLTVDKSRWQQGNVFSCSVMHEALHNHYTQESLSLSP
light: B1 light
notes: copies: 2 + 2
B13: GpH7-B3 variant L235P/GpL16-k0 (antibody, human IgG1)
heavy: not shown
light: B1 light
notes: copies: 2 + 2
B14: GpH7-B3 variant L235Q/GpL16-k0 (antibody, human IgG1)
heavy: not shown
light: B1 light
notes: copies: 2 + 2
B15: GpH7-B3 variant L234T/GpL16-k0 (antibody, human IgG1)
heavy: not shown
light: B1 light
notes: copies: 2 + 2
B16: GpH7-B3 variant L234S/GpL16-k0 (antibody, human IgG1)
heavy: not shown
light: B1 light
notes: copies: 2 + 2
B17: GpH7-B3 variant L235E/GpL16-k0 (antibody, human IgG1)
heavy: not shown
light: B1 light
notes: copies: 2 + 2
B18: GpH7-B3 variant L235H/GpL16-k0 (antibody, human IgG1)
heavy: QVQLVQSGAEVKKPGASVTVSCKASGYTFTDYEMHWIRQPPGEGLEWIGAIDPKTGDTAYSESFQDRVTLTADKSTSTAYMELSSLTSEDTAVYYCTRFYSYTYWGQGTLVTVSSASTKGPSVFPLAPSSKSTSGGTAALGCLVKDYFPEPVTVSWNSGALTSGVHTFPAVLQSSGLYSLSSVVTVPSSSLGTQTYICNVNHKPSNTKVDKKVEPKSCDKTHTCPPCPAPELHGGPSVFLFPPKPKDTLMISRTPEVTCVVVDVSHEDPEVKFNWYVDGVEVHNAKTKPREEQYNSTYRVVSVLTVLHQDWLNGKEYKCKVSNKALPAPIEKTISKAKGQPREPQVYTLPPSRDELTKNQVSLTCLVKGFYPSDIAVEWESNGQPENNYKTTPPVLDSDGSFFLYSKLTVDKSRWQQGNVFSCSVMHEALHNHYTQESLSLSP
light: B1 light
notes: copies: 2 + 2
B19: GpH7-B3 variant L234R/GpL16-k0 (antibody, human IgG1)
heavy: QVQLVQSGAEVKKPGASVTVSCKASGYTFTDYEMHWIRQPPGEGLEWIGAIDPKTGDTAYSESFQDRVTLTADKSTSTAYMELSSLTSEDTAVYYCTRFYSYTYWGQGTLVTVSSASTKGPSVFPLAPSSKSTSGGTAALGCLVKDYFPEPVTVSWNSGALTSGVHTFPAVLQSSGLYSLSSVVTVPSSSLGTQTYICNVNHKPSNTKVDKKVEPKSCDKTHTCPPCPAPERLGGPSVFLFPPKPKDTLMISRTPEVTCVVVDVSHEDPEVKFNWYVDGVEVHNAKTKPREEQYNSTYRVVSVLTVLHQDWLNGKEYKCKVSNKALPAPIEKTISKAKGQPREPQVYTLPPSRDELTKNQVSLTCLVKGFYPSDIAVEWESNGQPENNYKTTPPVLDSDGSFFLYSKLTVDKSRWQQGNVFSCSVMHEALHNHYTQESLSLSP
light: B1 light
notes: copies: 2 + 2
B20: GpH7-B3 variant L235K/GpL16-k0 (antibody, human IgG1)
heavy: not shown
light: B1 light
notes: copies: 2 + 2
B21: GpH7-B3 variant L235D/GpL16-k0 (antibody, human IgG1)
heavy: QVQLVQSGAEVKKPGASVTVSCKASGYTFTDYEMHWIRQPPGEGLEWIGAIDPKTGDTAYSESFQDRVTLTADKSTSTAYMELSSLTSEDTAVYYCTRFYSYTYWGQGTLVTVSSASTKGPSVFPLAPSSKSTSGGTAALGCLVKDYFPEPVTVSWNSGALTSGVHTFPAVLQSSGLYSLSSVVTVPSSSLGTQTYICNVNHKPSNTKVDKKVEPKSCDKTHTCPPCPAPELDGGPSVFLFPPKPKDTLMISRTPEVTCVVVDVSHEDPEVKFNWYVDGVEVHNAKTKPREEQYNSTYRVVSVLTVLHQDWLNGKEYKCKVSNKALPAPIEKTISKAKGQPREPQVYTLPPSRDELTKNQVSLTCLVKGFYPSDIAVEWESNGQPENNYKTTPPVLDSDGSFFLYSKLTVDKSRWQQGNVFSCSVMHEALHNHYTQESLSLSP
light: B1 light
notes: copies: 2 + 2
B22: GpH7-B3 variant L235S/GpL16-k0 (antibody, human IgG1)
heavy: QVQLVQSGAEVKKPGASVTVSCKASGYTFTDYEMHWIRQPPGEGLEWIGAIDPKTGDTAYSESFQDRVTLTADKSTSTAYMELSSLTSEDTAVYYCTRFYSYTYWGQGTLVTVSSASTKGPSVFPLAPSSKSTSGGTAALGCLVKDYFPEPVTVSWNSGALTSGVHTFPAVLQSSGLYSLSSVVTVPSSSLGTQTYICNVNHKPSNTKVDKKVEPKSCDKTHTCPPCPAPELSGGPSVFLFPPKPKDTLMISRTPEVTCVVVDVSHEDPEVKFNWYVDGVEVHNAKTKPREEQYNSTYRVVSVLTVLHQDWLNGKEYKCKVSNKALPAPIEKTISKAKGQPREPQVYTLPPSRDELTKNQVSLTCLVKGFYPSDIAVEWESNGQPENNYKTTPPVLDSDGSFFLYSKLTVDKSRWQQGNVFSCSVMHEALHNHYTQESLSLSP
light: B1 light
notes: copies: 2 + 2
B23: GpH7-B3 variant L234N/GpL16-k0 (antibody, human IgG1)
heavy: not shown
light: B1 light
notes: copies: 2 + 2

Columns and labels:
Assay in all cases: SPR (Biacore);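 note: antibody variants captured on sensor chip, Fcγ receptor flowed over at 25 °C, bound receptor normalized to amount of captured antibody, expressed relative to reference antibody set as 100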
[1] = target: T1, human FcγRIIa(H)
Method: (§1) Interaction between each modified antibody and Fcγ receptor prepared in the manner described above was analyzed using the BIACORE™ T100 surface plasmon resonance system (GE Healthcare), BIACORE™ T200 surface plasmon resonance system (GE Healthcare), BIACORE™ A100 surface plasmon resonance system or BIACORE™ 4000 surface plasmon resonance system. HBS-EP+ (GE Healthcare) was used for the running buffer, and measurements were carried out at 25° C. The chips used were chips in which antigen peptides, Protein A (Thermo Scientific), Protein A/G (Thermo Scientific) or Protein L (ACTIGEN® protein (Alltech or BioVision) were immobilized on the Series S Sensor Chip CMS (GE Healthcare) or Series S Sensor Chip CM4 (GE Healthcare) by amine coupling, or chips in which preliminarily biotinylated antigen peptides were allowed to interact and then immobilized on the Series S Sensor Chip SA (certified) (GE Healthcare). The target antibodies were captured on these sensor chips, Fcγ receptor diluted with the running buffer was allowed to interact, followed by measurement of the amount of bound antibody. The amounts bound were compared between antibodies. However, since the amount of Fcγ receptor bound depends on the amount of captured antibody, the values used for comparison were first corrected by dividing the amount of Fcγ receptor bound by the captured amount of each antibody. Through reaction with 10 mM glycine-HCl at pH 1.5, the sensor chips were regenerated by washing off antibody captured on the sensor chips and used repeatedly.
(§2) Binding strength was evaluated according to the following method based on the results of analyzing the interaction with each FcγR. […] That value was then further multiplied by 100, and the resulting value was used as an indicator of relative binding activity to each FcγR.

[2] = target: T2, human FcγRIIa(R)
Method: as §1, §2

[3] = target: T3, human FcγRIIb
Method: as §1, §2

[4] = target: T4, human FcγRIIIa(F) (human, UniProt P08637 17-208, limits assumed)
T4 construct: also called FcgRIIIaF; allotype F158
Method: as §1, §2

[5] = target: T5, human FcγRIa (human, UniProt P12314 16-292, limits assumed)
T5 construct: also called FcgRIa; FcγRI (CD64)
Method: as §1, §2

Binder | relative binding activity [1] | relative binding activity [2] | relative binding activity [3] | relative binding activity [4] | relative binding activity [5]
B1 | 29 % of GpH7-B3/GpL16-k0 | 21 % of GpH7-B3/GpL16-k0 | 24 % of GpH7-B3/GpL16-k0 | 32 % of GpH7-B3/GpL16-k0 | 65 % of GpH7-B3/GpL16-k0
B2 | 45 % of GpH7-B3/GpL16-k0 | 41 % of GpH7-B3/GpL16-k0 | 33 % of GpH7-B3/GpL16-k0 | 45 % of GpH7-B3/GpL16-k0 | 83 % of GpH7-B3/GpL16-k0
B3 | 16 % of GpH7-B3/GpL16-k0 | 18 % of GpH7-B3/GpL16-k0 | 19 % of GpH7-B3/GpL16-k0 | 25 % of GpH7-B3/GpL16-k0 | 80 % of GpH7-B3/GpL16-k0
B4 | 1 % of GpH7-B3/GpL16-k0 | -4 % of GpH7-B3/GpL16-k0 | -2 % of GpH7-B3/GpL16-k0 | 9 % of GpH7-B3/GpL16-k0 | 0 % of GpH7-B3/GpL16-k0
B5 | 37 % of GpH7-B3/GpL16-k0 | 35 % of GpH7-B3/GpL16-k0 | 27 % of GpH7-B3/GpL16-k0 | 35 % of GpH7-B3/GpL16-k0 | 3 % of GpH7-B3/GpL16-k0
B6 | 7 % of GpH7-B3/GpL16-k0 | 6 % of GpH7-B3/GpL16-k0 | 3 % of GpH7-B3/GpL16-k0 | 13 % of GpH7-B3/GpL16-k0 | 16 % of GpH7-B3/GpL16-k0
B7 | 72 % of GpH7-B3/GpL16-k0 | 72 % of GpH7-B3/GpL16-k0 | 63 % of GpH7-B3/GpL16-k0 | 42 % of GpH7-B3/GpL16-k0 | 93 % of GpH7-B3/GpL16-k0
B8 | 89 % of GpH7-B3/GpL16-k0 | 81 % of GpH7-B3/GpL16-k0 | 88 % of GpH7-B3/GpL16-k0 | 85 % of GpH7-B3/GpL16-k0 | 93 % of GpH7-B3/GpL16-k0
B9 | 1 % of GpH7-B3/GpL16-k0 | -2 % of GpH7-B3/GpL16-k0 | -3 % of GpH7-B3/GpL16-k0 | 1 % of GpH7-B3/GpL16-k0 | 54 % of GpH7-B3/GpL16-k0
B10 | 57 % of GpH7-B3/GpL16-k0 | 65 % of GpH7-B3/GpL16-k0 | 53 % of GpH7-B3/GpL16-k0 | 50 % of GpH7-B3/GpL16-k0 | 100 % of GpH7-B3/GpL16-k0
B11 | 48 % of GpH7-B3/GpL16-k0 | 50 % of GpH7-B3/GpL16-k0 | 37 % of GpH7-B3/GpL16-k0 | 49 % of GpH7-B3/GpL16-k0 | 66 % of GpH7-B3/GpL16-k0
B12 | 63 % of GpH7-B3/GpL16-k0 | 64 % of GpH7-B3/GpL16-k0 | 90 % of GpH7-B3/GpL16-k0 | 36 % of GpH7-B3/GpL16-k0 | 94 % of GpH7-B3/GpL16-k0
B13 | 33 % of GpH7-B3/GpL16-k0 | 38 % of GpH7-B3/GpL16-k0 | 32 % of GpH7-B3/GpL16-k0 | 47 % of GpH7-B3/GpL16-k0 | 3 % of GpH7-B3/GpL16-k0
B14 | 34 % of GpH7-B3/GpL16-k0 | 28 % of GpH7-B3/GpL16-k0 | 20 % of GpH7-B3/GpL16-k0 | 35 % of GpH7-B3/GpL16-k0 | 29 % of GpH7-B3/GpL16-k0
B15 | 30 % of GpH7-B3/GpL16-k0 | 33 % of GpH7-B3/GpL16-k0 | 27 % of GpH7-B3/GpL16-k0 | 30 % of GpH7-B3/GpL16-k0 | 93 % of GpH7-B3/GpL16-k0
B16 | 21 % of GpH7-B3/GpL16-k0 | 20 % of GpH7-B3/GpL16-k0 | 19 % of GpH7-B3/GpL16-k0 | 22 % of GpH7-B3/GpL16-k0 | 63 % of GpH7-B3/GpL16-k0
B17 | 52 % of GpH7-B3/GpL16-k0 | 72 % of GpH7-B3/GpL16-k0 | 64 % of GpH7-B3/GpL16-k0 | 56 % of GpH7-B3/GpL16-k0 | 15 % of GpH7-B3/GpL16-k0
B18 | 88 % of GpH7-B3/GpL16-k0 | 91 % of GpH7-B3/GpL16-k0 | 66 % of GpH7-B3/GpL16-k0 | 28 % of GpH7-B3/GpL16-k0 | 2 % of GpH7-B3/GpL16-k0
B19 | 2 % of GpH7-B3/GpL16-k0 | 0 % of GpH7-B3/GpL16-k0 | 0 % of GpH7-B3/GpL16-k0 | 4 % of GpH7-B3/GpL16-k0 | 50 % of GpH7-B3/GpL16-k0
B20 | 0 % of GpH7-B3/GpL16-k0 | -5 % of GpH7-B3/GpL16-k0 | -3 % of GpH7-B3/GpL16-k0 | 6 % of GpH7-B3/GpL16-k0 | -1 % of GpH7-B3/GpL16-k0
B21 | 60 % of GpH7-B3/GpL16-k0 | 87 % of GpH7-B3/GpL16-k0 | 88 % of GpH7-B3/GpL16-k0 | 60 % of GpH7-B3/GpL16-k0 | 1 % of GpH7-B3/GpL16-k0
B22 | 39 % of GpH7-B3/GpL16-k0 | 29 % of GpH7-B3/GpL16-k0 | 23 % of GpH7-B3/GpL16-k0 | 36 % of GpH7-B3/GpL16-k0 | 11 % of GpH7-B3/GpL16-k0
B23 | 35 % of GpH7-B3/GpL16-k0 | 36 % of GpH7-B3/GpL16-k0 | 44 % of GpH7-B3/GpL16-k0 | 47 % of GpH7-B3/GpL16-k0 | 67 % of GpH7-B3/GpL16-k0
